Assay results: the RNAGym collection of RNA variant scans (doi:10.1021/acssynbio.7b00057)

B1: Pistol ribozyme (parent)
chain: GGGUCGUUGUUCCAUAAUCGCGUGGAUAUGGCACGCAAGUUUCUACCGGGCACCGUAAAUGUCCGACUGGAGCCGUUCGGGCGGCUAUAAACAGACCUCAGGCCCGAAGCGUGGCGGCACCUGCCGCCGGUGGUAAAAAAGAUCGGAAGAGCACACGUCU

Variants of: B1
Assay: aptazyme ON/OFF ratio, guanine; higher = stronger switching; co-transcriptional cleavage with and without guanine

Row | Variant | aptazyme ON/OFF ratio
1 | G9A U10A U11C C12G C13U | 1.41
2 | G9A U10A U11C C12G C13G | 1.27
3 | G9A U10A U11C C12G C13A | 1.31
4 | G9A U11C C12A C13A | 1.06
5 | G9A U11C C12A C13U | 1.23
6 | G9A U11C C12A C13G | 1.35
7 | G9A U11G C12A | 1.1
8 | G9A U11G C12G | 1.3
9 | G9A U11G C12U | 2.06
10 | G9A U11A C12U | 1.83
11 | G9A U11A C12A | 1.68
12 | G9A U11A C12G | 1.51
13 | G9C U10A U11C C12A C13A | 1.3
14 | G9C U10A U11C C12A C13U | 1.29
15 | G9C U10A U11C C12A C13G | 1.18
16 | G9C | 1.06
17 | G9C U10A U11G C12G C13A | 1.19
18 | G9C U10A U11G C12G C13G | 1.13
19 | G9C U10A U11G C12G C13U | 1.16
20 | G9A U10A U11G | 2.38
21 | G9A U10A U11C | 1.08
22 | G9A U11C C12A | 1.38
23 | G9A U11C C12U | 1.35
24 | G9A U11C C12G | 1.45

Row | Variant | aptazyme ON/OFF ratio
25 | G9A U11A C12G C13U | 1.41
26 | G9A U11A C12G C13A | 1.39
27 | G9A U11A C12G C13G | 1.2
28 | G9A U10C U11C C12G C13G | 1.2
29 | G9A U10C U11C C12G C13A | 1.16
30 | G9A U10C U11C C12G C13U | 1.14
31 | G9C U10A U11C C12U C13G | 1.12
32 | G9C U10A U11C C12U C13A | 1.25
33 | G9C U10A U11C C12U C13U | 1.29
34 | G9A U10G C12U | 1.82
35 | G9A U10G C12G | 1.24
36 | G9A U10G C12A | 1.53
37 | G9A U10G U11C C13U | 1.09
38 | G9A U10G U11C C13A | 1.16
39 | G9A U10G U11C C13G | 1.12
40 | G9A U10C U11C C12G | 1.18
41 | G9A U10C U11C C12U | 1.06
42 | G9A U10C U11C C12A | 1.1
43 | G9A U10G C12A C13G | 1.14
44 | G9A U10G C12A C13U | 1.69
45 | G9A U10G C12A C13A | 1.29
46 | G9C U10C C13G | 1.06
47 | G9C U10C C13U | 1.1
48 | G9C U10C C13A | 1.06

Row | Variant | aptazyme ON/OFF ratio
49 | G9C U10C C12A | 1.09
50 | G9C U10C C12G | 1.06
51 | G9C U10C C12U | 1.12
52 | G9A U10C U11A C12U C13G | 1.29
53 | G9A U10C U11A C12U C13A | 1.35
54 | G9A U10C U11A C12U C13U | 1.22
55 | G9C U10A U11A C12A C13U | 1.27
56 | G9C U10A U11A C12A C13A | 1.4
57 | G9C U10A U11A C12A C13G | 1.21
58 | G9A U10C C12U C13U | 1.34
59 | G9A U10C C12U C13A | 1.38
60 | G9A U10C C12U C13G | 1.27
61 | G9C U10A C13U | 1.3
62 | G9C U10A C13G | 1.08
63 | G9C U10A C13A | 1.3
64 | G9A U10A U11A C12U C13U | 1.57
65 | G9A U10A U11A C13G | 1.05
66 | G9A U10A U11A C13A | 1.11
67 | G9A U10A U11A C13U | 1.46
68 | G9A U10C U11G C12G C13U | 1.1
69 | G9A U10C U11G C12G C13G | 1.12
70 | G9A U10C U11G C12G C13A | 1.17
71 | G9A U10C U11G C12A C13A | 1.22
72 | G9A U10C U11G C12A C13U | 1.21

Row | Variant | aptazyme ON/OFF ratio
73 | G9A U10C U11G C12A C13G | 1.3
74 | G9A U11A C12U C13U | 1.91
75 | G9A U11A C12U C13A | 1.37
76 | G9A U11A C12U C13G | 1.33
77 | G9C U10A C12U | 1.6
78 | G9C U10A C12A | 1.81
79 | G9C U10A C12G | 1.22
80 | G9A U10C U11A C12G C13U | 1.36
81 | G9A U10C U11A C12G C13A | 1.14
82 | G9A U10C U11A C12G C13G | 1.31
83 | G9A U10C U11G | 1.86
84 | G9A U10C U11A | 2.25
85 | G9A U10C U11C | 1.06
86 | G9A U10G U11C C12U C13A | 1.26
87 | G9A U10G U11C C12U C13G | 1.22
88 | G9A U10G U11C C12U C13U | 1.4
89 | G9C U10A U11A C12G | 1.5
90 | G9C U10A U11A C12U | 1.66
91 | G9C U10A U11A C12A | 1.52
92 | G9C C12G C13U | 1.26
93 | G9C C12G C13A | 1.28
94 | G9C C12G C13G | 1.14
95 | G9A U10A U11C C13G | 1.09
96 | G9A U10A U11C C13U | 1.01

Row | Variant | aptazyme ON/OFF ratio
97 | G9A U10A U11C C13A | 1.13
98 | G9A U11A C13G | 1.1
99 | G9A U11A C13A | 1.23
100 | G9A U11A C13U | 1.34
101 | G9A U10G U11G C13G | 1.14
102 | G9A U10G U11G C13A | 1.2
103 | G9A U10G U11G C13U | 1.12
104 | G9A U10G C12G C13G | 1.21
105 | G9A U10G C12G C13U | 1.29
106 | G9A U10G C12G C13A | 1.19
107 | G9C U10A U11A C12U C13U | 1.42
108 | G9C U10A U11A C12U C13G | 1.14
109 | G9C U10A U11A C12U C13A | 1.34
110 | G9A U10C U11A C12A C13A | 1.28
111 | G9A U10C U11A C12A C13G | 1.42
112 | G9A U10C U11A C12A C13U | 1.63
113 | G9C C12U C13A | 1.14
114 | G9C C12U C13U | 1.31
115 | G9C C12U C13G | 1.04
116 | G9A U11G C12U C13G | 1.42
117 | G9A U11G C12U C13U | 1.21
118 | G9A U11G C12U C13A | 1.35
119 | G9A U10C U11C C12A C13U | 1.3
120 | G9A U10C U11C C12A C13A | 1.12

Row | Variant | aptazyme ON/OFF ratio
121 | G9A U10C U11C C12A C13G | 1.18
122 | G9A U11C C12G C13U | 1.33
123 | G9A U11C C12G C13G | 1.15
124 | G9A U11C C12G C13A | 1.28
125 | G9A U10G U11G C12A C13A | 1.19
126 | G9A U10G U11G C12A C13U | 1.25
127 | G9A U10G U11G C12A C13G | 1.13
128 | G9A U10G U11G C12U C13G | 1.19
129 | G9A U10G U11G C12U C13U | 1.55
130 | G9A U10G U11G C12U C13A | 1.08
131 | G9C U10A C12G C13A | 1.31
132 | G9C U10A C12G C13U | 1.22
133 | G9C U10A C12G C13G | 1.18
134 | G9A U11G C13U | 1.44
135 | G9A U11G C13G | 1.1
136 | G9A U11G C13A | 1.37
137 | G9A U10G C12U C13A | 1.37
138 | G9A U10G C12U C13U | 1.05
139 | G9A U10G C12U C13G | 1.35
140 | G9A U10A U11C C12A C13A | 1.38
141 | G9A U10A U11C C12A C13U | 1.41
142 | G9A U10A U11C C12A C13G | 1.23
143 | G9A U10C C12G | 1.32
144 | G9A U10C C12U | 1.5

Row | Variant | aptazyme ON/OFF ratio
145 | G9A U10C C12A | 1.38
146 | G9C U10C U11A C13A | 1.05
147 | G9C U10C U11A C13G | 1.07
148 | G9C U10C U11A C13U | 1.07
149 | G9A U10A U11G C12G C13A | 1.42
150 | G9A U10A U11G C12G C13U | 1.25
151 | G9A U10A U11G C12G C13G | 1.2
152 | G9A U10C U11C C12U C13U | 1.06
153 | G9A U10C U11C C12U C13G | 1.04
154 | G9A U10C U11C C12U C13A | 1.03
155 | G9A U10G U11C C12G | 1.33
156 | G9A U10G U11C C12A | 1.53
157 | G9A U10G U11C C12U | 1.08
158 | G9A U10A U11C C12A | 1.65
159 | G9A U10A U11C C12G | 1.32
160 | G9A U10A U11C C12U | 1.13
161 | G9A U10G U11A C12A | 1.17
162 | G9A U10G U11A C12G | 1.33
163 | G9A U10G U11A C12U | 1.04
164 | G9A U10G U11C C12G C13G | 1.27
165 | G9A U10G U11C C12G C13U | 1.24
166 | G9A U10G U11C C12G C13A | 1.11
167 | G9C U10A U11A C13U | 1.32
